According to the supplement of paper PMC5998384:

Legend:
HeLa Kyoto [1] = assay: solubility in G1/S (NP-40 vs SDS abundance) (log2 ratio); higher = more soluble; details: cell cycle stage: G1/S
HeLa Kyoto [2] = assay: melting temperature (median over replicates), in situ; higher = more thermally stable
HeLa Kyoto [3] = assay: solubility change mitosis vs G1/S (difference of NP-40 vs SDS log2 ratios) (log2 ratio difference); higher = more soluble in mitosis
HeLa Kyoto [4] = assay: thermal stability score vs G1/S (z-score of summed log2 fold changes over temperatures); higher = more thermally stable than in G1/S
[5] = cell cycle stage: early G1 (4.5 h after nocodazole release)
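For melting temperature (median over replicates), in situ in this document: HeLa Kyoto cells synchronized by double thymidine or nocodazole block, proteins quantified by TMT10plex mass spectrometry, three independent biological replicates.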
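For solubility change mitosis vs G1/S (difference of NP-40 vs SDS log2 ratios) in this document: synchronized HeLa Kyoto cells (double thymidine block for G1/S, nocodazole release for mitosis), protein amounts in NP-40 versus SDS lysates quantified by mass spectrometry, three biological replicates.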
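For solubility in G1/S (NP-40 vs SDS abundance) in this document: HeLa Kyoto cells arrested at G1/S by double thymidine block, proteins quantified by TMT10plex mass spectrometry in mild NP-40 versus SDS extracts, three biological replicates.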
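For thermal stability score vs G1/S (z-score of summed log2 fold changes over temperatures) in this document: synchronized HeLa Kyoto cells, proteins quantified by TMT10plex mass spectrometry, three biological replicates, mitosis taken 0.5 h after nocodazole release, G1/S directly after double thymidine block.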

| Sequence | solubility in G1/S (log2) (HeLa Kyoto [1]) | melting temperature (HeLa Kyoto [2]; cell cycle stage: G1/S) | melting temperature (HeLa Kyoto [2]; cell cycle stage: mitosis) | solubility change mitosis (log2) (HeLa Kyoto [3]) | thermal stability score (HeLa Kyoto [4]; [5]) | thermal stability score (HeLa Kyoto [4]; cell cycle stage: mitosis) |
| --- | --- | --- | --- | --- | --- | --- |
| MKALDEPPYLTVGTDVSAKYRGAFCEAKIKTAKRLVKVKVTFRHDSSTVEVQDDHIKGPLKVGAIVEVKNLDGAYQEAVINKLTDASWYTVVFDDGDEKTLRRSSLCLKGERHFAESETLDQLPLTNPEHFGTPVIGKKTNRGRRSNHIPEEESSSSSSDEDEDDRKQIDELLGKVVCVDYISLDKKKALWFPALVVCPDCSDEIAVKKDNILVRSFKDGKFTSVPRKDVHEITSDTAPKPDAVLKQAFEQALEFHKSRTIPANWKTELKEDSSSSEAEEEEEEEDDEKEKEDNSSEEEEEIEPFPEERENFLQQLYKFMEDRGTPINKRPVLGYRNLNLFKLFRLVHKLGGFDNIESGAVWKQVYQDLGIPVLNSAAGYNVKCAYKKYLYGFEEYCRSANIEFQMALPEKVVNKQCKECENVKEIKVKEENETEIKEIKMEEERNIIPREEKPIEDEIERKENIKPSLGSKKNLLESIPTHSDQEKEVNIKKPEDNENLDDKDDDTTRVDESLNIKVEAEEEKAKSGDETNKEEDEDDEEAEEEEEEEEEEEDEDDDDNNEEEEFECYPPGMKVQVRYGRGKNQKMYEASIKDSDVEGGEVLYLVHYCGWNVRYDEWIKADKIVRPADKNVPKIKHRKKIKNKLDKEKDKDEKYSPKNCKLRRLSKPPFQTNPSPEMVSKLDLTDAKNSDTAHIKSIEITSILNGLQASESSAEDSEQEDERGAQDMDNNGKEESKIDHLTNNRNDLISKEEQNSSSLLEENKVHADLVISKPVSKSPERLRKDIEVLSEDTDYEEDEVTKKRKDVKKDTTDKSSKPQIKRGKRRYCNTEECLKTGSPGKKEEKAKNKESLCMENSSNSSSDEDEEETKAKMTPTKKYNGLEEKRKSLRTTGFYSGFSEVAEKRIKLLNNSDERLQNSRAKDRKDVWSSIQGQWPKKTLKELFSDSDTEAAASPPHPAPEEGVAEESLQTVAEEESCSPSVELEKPPPVNVDSKPIEEKTVEVNDRKAEFPSSGSNSVLNTPPTTPESPSSVTVTEGSRQQSSVTVSEPLAPNQEEVRSIKSETDSTIEVDSVAGELQDLQSEGNSSPAGFDASVSSSSSNQPEPEHPEKACTGQKRVKDAQGGGSSSKKQKRSHKATVVNNKKKGKGTNSSDSEELSAGESITKSQPVKSVSTGMKSHSTKSPARTQSPGKCGKNGDKDPDLKEPSNRLPKVYKWSFQMSDLENMTSAERITILQEKLQEIRKHYLSLKSEVASIDRRRKRLKKKERESAATSSSSSSPSSSSITAAVMLTLAEPSMSSASQNGMSVECR [ARID4B] | -0.276 | 48.4 °C | 49.6 °C | 0.0721 | 0.255 | 0.983 |
| MKARRNKKQIPSFRKLIKTSKVKLENKLKNKQFKQQSTLKKYRKEQRKLRQAVKDAVSKKPIPLENPKEKRPGKRIEREEEEEEEALPLDMMDEDDLQLMKDLGQRVSFLTRDLSSSEPVHAKKRKHERIIDKYEKIPRTLQTAPEKELIHLLPIKDKSGIIPQTREKPVTDSNKDEEDQEEERELEEEIIEDPIQELTIEEHLIERKKKLQEKKMHIAALASAILSDPENNIKKLKELRSMLMEQDPDVAVTVRKLVIVSLMELFKDITPSYKIRPLTEAEKSTKTRKETQKLREFEEGLVSQYKFYLENLEQMVKDWKQRKLKKSNVVSLKAYKGLAEVAVKSLCELLVALPHFNFHNNIIVLIVPLMNDMSKLISEMCCEAVKKLFKQDKLGQASLGVIKVISGFVKGRNYEVRPEMLKTFLCLRIKEVEVKKDTEDINKPKKFMTFKEKRKSLSRMQRKWKKAEEKLERELREAEASESTEKKLKLHTETLNIVFVTYFRILKKAQRSPLLPAVLEGLAKFAHLINVEFFDDLLVVLHTLIESGDLSYQESLHCVQTAFHILSGQGDVLNIDPLKFYTHLYKTLFKLHAGATNEGVEIVLQCLDVMLTKRRKQVSQQRALAFIKRLCTLALHVLPNSSIGILATTRILMHTFPKTDLLLDSESQGSGVFLPELDEPEYCNAQNTALWELHALRRHYHPIVQRFAAHLIAGAPSEGSGALKPELSRRSATELFEAYSMAEMTFNPPVESSNPKIKGKFLQGDSFLNEDLNQLIKRYSSEVATESPLDFTKYLKTSLH [NOC3L] | -1.96 | 49.2 °C | 50 °C | 1.29 | 0.294 | 0.855 |
| MKDSENKGASSPDMEPSYGGGLFDMVKGGAGRLFSNLKDNLKDTLKDTSSRVIQSVTSYTKGDLDFTYVTSRIIVMSFPLDNVDIGFRNQVDDIRSFLDSRHLDHYTVYNLSPKSYRTAKFHSRVSECSWPIRQAPSLHNLFAVCRNMYNWLLQNPKNVCVVHCLDGRAASSILVGAMFIFCNLYSTPGPAIRLLYAKRPGIGLSPSHRRYLGYMCDLLADKPYRPHFKPLTIKSITVSPIPFFNKQRNGCRPYCDVLIGETKIYSTCTDFERMKEYRVQDGKIFIPLNITVQGDVVVSMYHLRSTIGSRLQAKVTNTQIFQLQFHTGFIPLDTTVLKFTKPELDACDVPEKYPQLFQVTLDVELQPHDKVIDLTPPWEHYCTKDVNPSILFSSHQEHQDTLALGGQAPIDIPPDNPRHYGQSGFFASLCWQDQKSEKSFCEEDHAALVNQESEQSDDELLTLSSPHGNANGDKPHGVKKPSKKQQEPAAPPPPEDVDLLGLEGSAMSNSFSPPAAPPTNSELLSDLFGGGGAAGPTQAGQSGVEDVFHPSGPASTQSTPRRSATSTSASPTLRVGEGATFDPFGAPSKPSGQDLLGSFLNTSSASSDPFLQPTRSPSPTVHASSTPAVNIQPDVSGGWDWHAKPGGFGMGSKSAATSPTGSSHGTPTHQSKPQTLDPFADLGTLGSSSFASKPTTPTGLGGGFPPLSSPQKASPQPMGGGWQQGGAYNWQQPQPKPQPSMPHSSPQNRPNYNVSFSAMPGGQNERGKGSSNLEGKQKAADFEDLLSGQGFNAHKDKKGPRTIAEMRKEEMAKEMDPEKLKILEWIEGKERNIRALLSTMHTVLWAGETKWKPVGMADLVTPEQVKKVYRKAVLVVHPDKATGQPYEQYAKMIFMELNDAWSEFENQGQKPLY [DNAJC6] | 0.0466 | 51.6 °C | 51.7 °C | -0.112 | -0.0779 | -0.888 |
| MKFRAKIVDGACLNHFTRISNMIAKLAKTCTLRISPDKLNFILCDKLANGGVSMWCELEQENFFNEFQMEGVSAENNEIYLELTSENLSRALKTAQNARALKIKLTNKHFPCLTVSVELLSMSSSSRIVTHDIPIKVIPRKLWKDLQEPVVPDPDVSIYLPVLKTMKSVVEKMKNISNHLVIEANLDGELNLKIETELVCVTTHFKDLGNPPLASESTHEDRNVEHMAEVHIDIRKLLQFLAGQQVNPTKALCNIVNNKMVHFDLLHEDVSLQYFIPALS [HUS1] | 0.0659 | 51.8 °C | 51.9 °C | -0.083 | 1.48 | 1.19 |
| MKGKEEKEGGARLGAGGGSPEKSPSAQELKEQGNRLFVGRKYPEAAACYGRAITRNPLVAVYYTNRALCYLKMQQHEQALADCRRALELDGQSVKAHFFLGQCQLEMESYDEAIANLQRAYSLAKEQRLNFGDDIPSALRIAKKKRWNSIEERRIHQESELHSYLSRLIAAERERELEECQRNHEGDEDDSHVRAQQACIEAKHDKYMADMDELFSQVDEKRKKRDIPDYLCGKISFELMREPCITPSGITYDRKDIEEHLQRVGHFDPVTRSPLTQEQLIPNLAMKEVIDAFISENGWVEDY [STUB1] | 0.397 | 46.7 °C | 49.5 °C | 0.0745 | 1.3 | 2.29 |
| MKIKDAKKPSFPWFGMDIGGTLVKLSYFEPIDITAEEEQEEVESLKSIRKYLTSNVAYGSTGIRDVHLELKDLTLFGRRGNLHFIRFPTQDLPTFIQMGRDKNFSTLQTVLCATGGGAYKFEKDFRTIGNLHLHKLDELDCLVKGLLYIDSVSFNGQAECYYFANASEPERCQKMPFNLDDPYPLLVVNIGSGVSILAVHSKDNYKRVTGTSLGGGTFLGLCSLLTGCESFEEALEMASKGDSTQADKLVRDIYGGDYERFGLPGWAVASSFGNMIYKEKRESVSKEDLARATLVTITNNIGSVARMCAVNEKINRVVFVGNFLRVNTLSMKLLAYALDYWSKGQLKALFLEHEGYFGAVGALLGLPNFS [PANK3] | -0.124 | 53.4 °C | 53.9 °C | -0.137 | -1.56 | -0.972 |
| MKKFFDSRREQGGSGLGSGSSGGGGSTSGLGSGYIGRVFGIGRQQVTVDEVLAEGGFAIVFLVRTSNGMKCALKRMFVNNEHDLQVCKREIQIMRDLSGHKNIVGYIDSSINNVSSGDVWEVLILMDFCRGGQVVNLMNQRLQTGFTENEVLQIFCDTCEAVARLHQCKTPIIHRDLKVENILLHDRGHYVLCDFGSATNKFQNPQTEGVNAVEDEIKKYTTLSYRAPEMVNLYSGKIITTKADIWALGCLLYKLCYFTLPFGESQVAICDGNFTIPDNSRYSQDMHCLIRYMLEPDPDKRPDIYQVSYFSFKLLKKECPIPNVQNSPIPAKLPEPVKASEAAAKKTQPKARLTDPIPTTETSIAPRQRPKAGQTQPNPGILPIQPALTPRKRATVQPPPQAAGSSNQPGLLASVPQPKPQAPPSQPLPQTQAKQPQAPPTPQQTPSTQAQGLPAQAQATPQHQQQLFLKQQQQQQQPPPAQQQPAGTFYQQQQAQTQQFQAVHPATQKPAIAQFPVVSQGGSQQQLMQNFYQQQQQQQQQQQQQQLATALHQQQLMTQQAALQQKPTMAAGQQPQPQPAAAPQPAPAQEPAIQAPVRQQPKVQTTPPPAVQGQKVGSLTPPSSPKTQRAGHRRILSDVTHSAVFGVPASKSTQLLQAAAAEASLNKSKSATTTPSGSPRTSQQNVYNPSEGSTWNPFDDDNFSKLTAEELLNKDFAKLGEGKHPEKLGGSAESLIPGFQSTQGDAFATTSFSAGTAEKRKGGQTVDSGLPLLSVSDPFIPLQVPDAPEKLIEGLKSPDTSLLLPDLLPMTDPFGSTSDAVIEKADVAVESLIPGLEPPVPQRLPSQTESVTSNRTDSLTGEDSLLDCSLLSNPTTDLLEEFAPTAISAPVHKAAEDSNLISGFDVPEGSDKVAEDEFDPIPVLITKNPQGGHSRNSSGSSESSLPNLARSLLLVDQLIDL [AAK1] | 0.192 | 50.9 °C | 51.8 °C | -0.0894 | 0.691 | 0.746 |
